Sequences and labels used below:
B1: CDC25A (parent)
chain: KPIVPTDGKRVIVVFHCEFSSERG
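Further: lentivirally expressed fusions sorted by FACS into six bins by GFP to DsRed ratio, PSI derived from sequencing read proportions per bin multiplied by bin number.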

The data set covers variants of B1. Description: protein stability index of a GFP-peptide fusion (GPS, HEK-293T) (PSI 1-6); higher = more stable. Particulars: c terminus: a fixed tail appended.
As to KPIVPTDGKRVIVVSHCEFSSERG [F15S], the protein stability index worked out at 3.47.
The same measure for KPIVPTDGKRVIVVMHCEFSSERG [F15M]: 1.61; for KPIVPTDGKRVIVVLHCEFSSERG [F15L]: 3.28.
The value for KPIVPTDGKRVIVVPHCEFSSERG [F15P] was 4.14; that for KPIVPTDGKRVIVVNHCEFSSERG [F15N] was 3.98.
For the variant KPIVPTDGKRVIVVVHCEFSSERG [F15V], the protein stability index turned out to be 2.84.
The value for KPIVPTDGKRVIVVCHCEFSSERG [F15C] was 1.68.
The same measure for KPIVPTDGKRVIVVHHCEFSSERG [F15H]: 3.19; for KPIVPTDGKRVIVVFHCEFSSEPG [R23P]: 2.35.
The value for KPIVPTDGKRVIVVFHCEFSSEQG [R23Q] was 2.61; that for KPIVPTDGKRVIVVFHCEFSSEWG [R23W] was 1.55; that for KPIVPTDGKRVIVVFHCEFSSEMG [R23M] was 2.92.
As for KPIVPTDGKRVIVVFHCEFSSEEG [R23E], the protein stability index came out at 2.14.
KPIVPTDGKRVIVVFHCEFSSEYG [R23Y]: the protein stability index turned out to be 2.99.
In the case of KPIVPTDGKRVIVVFHCEFSSEVG [R23V], the protein stability index came to 3.12.
With KPIVPTDGKRVIVVFHCEFSSEGG [R23G], the protein stability index came out at 1.6.
For the variant KPIVPTDGKRVIVVFHCEFSSEFG [R23F], the protein stability index worked out at 3.05.
The same measure for KPIVPPDGKRVIVVFHCEFSSERG [T6P]: 1.95; for KPIVPCDGKRVIVVFHCEFSSERG [T6C]: 2.64.
The value for KPIVPWDGKRVIVVFHCEFSSERG [T6W] was 3.34.
The same measure for KPIVPKDGKRVIVVFHCEFSSERG [T6K]: 1.83.
For KPIVPADGKRVIVVFHCEFSSERG [T6A], the protein stability index stood at 1.44.
The value for KPIVPTDGKRVIVVFHCEFSMERG [S21M] was 2.22.
On to KPIVPTDGKRVIVVFHCEFSPERG [S21P], for which the protein stability index is 4.03.
The same measure for KPIVPTDGKRVIVVFHCEFSNERG [S21N]: 2.46.
The value for KPIVPTDGKRVIVVFHCEFSAERG [S21A] was 2.27; that for KPIVPTDGKRVIVVFHCEFSIERG [S21I] was 1.42; that for FPIVPTDGKRVIVVFHCEFSSERG [K1F] was 1.32.
The same measure for MPIVPTDGKRVIVVFHCEFSSERG [K1M]: 1.86.
Turning to PPIVPTDGKRVIVVFHCEFSSERG [K1P], the protein stability index was 2.25.
The same measure for EPIVPTDGKRVIVVFHCEFSSERG [K1E]: 1.68; for VPIVPTDGKRVIVVFHCEFSSERG [K1V]: 3.69; for APIVPTDGKRVIVVFHCEFSSERG [K1A]: 1.37.
As for WPIVPTDGKRVIVVFHCEFSSERG [K1W], the protein stability index was 2.24.
The same measure for SPIVPTDGKRVIVVFHCEFSSERG [K1S]: 2.04; for YPIVPTDGKRVIVVFHCEFSSERG [K1Y]: 1.55; for KPIFPTDGKRVIVVFHCEFSSERG [V4F]: 2.24.
Take KPIDPTDGKRVIVVFHCEFSSERG [V4D]: the protein stability index came to 2.51.
The value for KPIEPTDGKRVIVVFHCEFSSERG [V4E] was 1.48; that for KPIHPTDGKRVIVVFHCEFSSERG [V4H] was 2.17; that for KPIPPTDGKRVIVVFHCEFSSERG [V4P] was 2.75.
The value for KPIWPTDGKRVIVVFHCEFSSERG [V4W] was 2.32; that for KPILPTDGKRVIVVFHCEFSSERG [V4L] was 2.33.
The value for KPICPTDGKRVIVVFHCEFSSERG [V4C] was 2.14.
On to KPIVPTVGKRVIVVFHCEFSSERG [D7V], for which the protein stability index worked out at 2.3.
The value for KPIVPTLGKRVIVVFHCEFSSERG [D7L] was 3.2; that for KPIVPTPGKRVIVVFHCEFSSERG [D7P] was 3.14; that for KPIVPTAGKRVIVVFHCEFSSERG [D7A] was 2.21.
The value for KPIVPTHGKRVIVVFHCEFSSERG [D7H] was 3.21; that for KPIVPTTGKRVIVVFHCEFSSERG [D7T] was 3.31; that for KPIVPTSGKRVIVVFHCEFSSERG [D7S] was 1.84.
The same measure for KPIVPTDGKRVIVVFHCECSSERG [F19C]: 1.98; for KPIVPTDGKRVIVVFHCENSSERG [F19N]: 2; for KPIVPTDGKRVIVVFHCEWSSERG [F19W]: 1.86.
With KPIVPTDGKRVIVVFHCETSSERG [F19T], the protein stability index turned out to be 2.1.
The same measure for KPIVPTDGKRVIVVFHCEKSSERG [F19K]: 2.18.
The value for KPIVPTDGKRVIVVFHCERSSERG [F19R] was 2.22; that for KPIVPTDGKRVIVVFHCESSSERG [F19S] was 2.27.
The same measure for KPIVPTDGKRVIVVFHCEASSERG [F19A]: 1.71; for KPIVPTDGKRVIVVFHCEFSSSRG [E22S]: 3.61; for KPIVPTDGKRVIVVFHCEFSSRRG [E22R]: 2.68.
Take KPIVPTDGKRVIVVFHCEFSSMRG [E22M]: the protein stability index was determined as 2.29.
Take KPIVPTDGKRVIVVFHCEFSSDRG [E22D]: the protein stability index amounted to 2.61.
The same measure for KPIVPTDGKRVIVVFHCEFSSPRG [E22P]: 2.64; for KPIVPTDGKRVIVVFHCEFSSQRG [E22Q]: 1.96; for KPIVPTDGKRVIVVFHCEFSSNRG [E22N]: 2.29.
As to KPIVPTDGKRVRVVFHCEFSSERG [I12R], the protein stability index worked out at 1.94.
The value for KPIVPTDGKRVKVVFHCEFSSERG [I12K] was 3.13.
Take KPIVPTDGKRVSVVFHCEFSSERG [I12S]: the protein stability index stood at 1.82.
The same measure for KPIVPTDGKRVTVVFHCEFSSERG [I12T]: 2.
Take KPIVPTDGKRVMVVFHCEFSSERG [I12M]: the protein stability index was 2.24.
The value for KPIVPTDGKRVDVVFHCEFSSERG [I12D] was 3.47.
The same measure for KPIVPTDGKRVCVVFHCEFSSERG [I12C]: 2.1.
The value for KPIVPTDGKRVFVVFHCEFSSERG [I12F] was 3.2; that for KPIVPTDGKRVGVVFHCEFSSERG [I12G] was 3.13.
KPIVPTDGKRVQVVFHCEFSSERG [I12Q]: the protein stability index stood at 2.
The value for KPIVPTDGKRVWVVFHCEFSSERG [I12W] was 2.49.
The same measure for KPIVPTDGKRVPVVFHCEFSSERG [I12P]: 3.39.
The same measure for KPIVPTDGKRVIVEFHCEFSSERG [V14E]: 2.67.
Take KPIVPTDGKRVIVDFHCEFSSERG [V14D]: the protein stability index turned out to be 3.36.
The value for KPIVPTDGKRVIVMFHCEFSSERG [V14M] was 1.9; that for KPIVPTDGKRVIVPFHCEFSSERG [V14P] was 3.44; that for KPIVPTDGKRVIVGFHCEFSSERG [V14G] was 2.69.
For the variant KPIVPTDGKRVIVAFHCEFSSERG [V14A], the protein stability index came out at 1.92.
KPIVPTDGKRVIVWFHCEFSSERG [V14W]: the protein stability index turned out to be 2.09.
The same measure for KPIVPTDGKRVIVVFYCEFSSERG [H16Y]: 3.43.
The same measure for KPIVPTDGKRVIVVFECEFSSERG [H16E]: 1.5; for KPIVPTDGKRVIVVFFCEFSSERG [H16F]: 2.41; for KPIVPTDGKRVIVVFTCEFSSERG [H16T]: 3.6.
As for KPIVPTDGKRVIVVFCCEFSSERG [H16C], the protein stability index came out at 2.31.
For the variant KPIVPTDGKRVIVVFPCEFSSERG [H16P], the protein stability index was 2.46.
The value for KPIVPTDGKRVIVVFGCEFSSERG [H16G] was 1.76; that for KPIVPTDGKRVIVVFDCEFSSERG [H16D] was 2.06; that for KPIVPTDGKRVIVVFVCEFSSERG [H16V] was 2.32.

The record behind these values is the supplement of paper PMC10567573.
